Literature values in publication PMC7411019.

Biological target: cTnI-binding peptide

Chain of Cardiac troponin I 114-144 (P19429 114-144): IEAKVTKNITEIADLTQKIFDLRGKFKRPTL

Substance: Cardiac troponin I 114-144 (from UniProt P19429)
- Kd: 0.27 nM
